Assay results from patent US20170349943, “METHODS FOR DETECTING ENHANCED NMDA RECEPTOR FUNCTION AND USES THEREOF” (INOVA HEALTH SYSTEM, published 2017).

Biological target: T1, Elk-1 (Homo sapiens, UniProt P19419 P19419:1-428)
T1 sequence: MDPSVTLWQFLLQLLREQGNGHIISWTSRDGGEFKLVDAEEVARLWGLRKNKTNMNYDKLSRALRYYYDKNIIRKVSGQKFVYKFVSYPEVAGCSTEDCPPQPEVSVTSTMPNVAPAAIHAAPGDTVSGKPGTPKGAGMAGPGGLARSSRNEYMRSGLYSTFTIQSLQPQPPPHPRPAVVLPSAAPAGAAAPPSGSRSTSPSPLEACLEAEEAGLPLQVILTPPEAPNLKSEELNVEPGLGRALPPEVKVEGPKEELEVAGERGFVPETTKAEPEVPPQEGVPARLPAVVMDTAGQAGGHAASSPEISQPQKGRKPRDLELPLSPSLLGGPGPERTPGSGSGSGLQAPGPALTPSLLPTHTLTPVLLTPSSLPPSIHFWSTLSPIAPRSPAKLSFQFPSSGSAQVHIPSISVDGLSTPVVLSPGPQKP
Assay: EMSA; bound to a greater extent than G allele; 50 mM HEPES pH 7.5, 10 mM MgCl2, on ice 1 h, then Elk-1 antibody
Details: tags: recombinant human Elk-1, Sigma Aldrich
Procedure: FIG. 2 depicts binding of recombinant Elk-1 protein (an ETS transcription factor) to double stranded DNAs containing the single nucleotide polymorphism (SNP) rs3764030 variant A allele from the human GRIN2B gene promoter. Double-stranded DNA targets (Methods) were sequentially incubated with 1 μg recombinant human Elk-1 protein in EMSA buffer, then incubated with the Elk-1 antibody 20 minutes. […] Samples were electrophoresed through 6% polyacrylamide gels in HEPES buffer pH 6.3, without polydldC. The gel was then stained with the SYBR Green to visualize DNA and SYPRO Ruby for protein bound to DNA. The stained gel was scanned using G:BOX (Syngene, US) for imaging. Elk-1 bound to DNA is indicated by the arrow.
The complementary pairs of DNA oligonucleotides were first annealed in Biorad C1000 thermocycler with 1° C./1 min decreasing from 95° C. to 20° C. The annealing buffer composition was 10 mM Tris-HCl pH 8.0, 1 mM EDTA and 50 mM NaCl. The annealed dsDNA was then incubated with 1 μg recombinant human Elk-1 protein (Sigma Aldrich, US) on ice for 1 hour in EMSA buffer, then incubated with the Elk-1 antibody (SC-355)(Santa Cruz Technology, US) 20 minutes in room temperature. The compositions of EMSA buffer was 50 mM HEPES pH7.5, 10 mM MgCl₂, 5% glycerol, 1 mM DTT, 0.3% BSA and 1 mM EDTA. […]

B1: GRIN2B promoter rs3764030 A allele probe (dsDNA)
DNA 1: CATCTCCGGGGAACACGCGAA
DNA 2: TTCGCGTGTTCCCCGGAGATG
**Q.** Does B1 bind?
**A.** binds
